Measured values: US7883707B2, “Induction of antigen specific immunnologic tolerance” (priority 2002, dated 2011)
Values joined by “and” are separate entries in the source; they are usually repeats but may differ in a detail not shown here. Equal entries are not always repeated. “Also recorded” adds a separate entry of the source.

Columns and labels:
[1] = test system: ovalbumin; assay: Attempted induction of tolerance to ovalbumin; assay type: in vivo; settings: ovalbumin with mannose terminated N-linked oligosaccharides
Source text: The titer in the tolerance dogs stayed low for several months and was studied in RO and SA for 6 months of weekly infusions (FIG. 2).

[2] = test system: Hurler fibroblasts; assay: Half maximal uptake (Kuptake) of iduronidase into Hurler fibroblasts; assay type: cell-based
Source text: It is especially preferred that the receptor has a Kuptake for the ligand of at least about 10^−6 M, usually at least about 10^−7 M more usually at least about 10^−8 M and preferably at least about 10^−9 M where Kuptake represents the concentration of ligand at which half maximal uptake occurs in a cell. Receptors of interest include the transferrin receptor, the melanotransferrin receptor, mannose 6-phosphate receptor, growth hormone receptor, and the like. Cognate ligands include: insulin-like growth factor II (IGF2), transferrin, growth hormone, insulin, and binding fragments thereof, particularly polypeptides having specific and high affinity receptors on diverse cell types. Single chain antibodies and binding agents from randomized phage display systems could be used if they have adequate affinity for the receptor. To determine the Kuptake of a ligand and receptor combination, methods known in the art may be used, for example see Kakkis et al. (1994) Protein Expr Purif 5(3):225-32 for assays used to determine the Kuptake of alpha-L-iduronidase. The disclosed methods are readily adapted to any ligand and receptor combination. Such assays are also useful in verifying the uptake of toleragens comprising exogenous high uptake moieties.
Enzyme Infusions. […] Animals monitored for an anaphylactic reaction. […]

[3] = test system: antibody titer to iduronidase; assay: ELISA antibody titer to iduronidase in canines on weekly iduronidase infusions, with or without tolerance regimens
Experimental: Normal and MPS I canines were obtained from the MPS I canine colony at Harbor-UCLA. The dogs are a cross between beagles and Plott hounds and average 12-20 kg in weight. The canines were under 2 years of age and at least 4 months of age for these experiments.
Enzyme Infusions. […] For toleragenic infusions, 14,000 U/kg/week α-L-iduronidase in 50 mL infusion in saline with 1 mg/mL canine albumin, and 10 mM NaPO4 was administered intravenously over 2 hours (1st hour 3,000 U/kg/hr; 2nd hour 11,000 U/kg/hr). Animals monitored for an anaphylactic reaction.
Canines were initiated on immunosuppressive drugs at day 0, equivalent to 18 days prior to the first enzyme challenge. If scheduled, the canines received monoclonal antibodies by intravenous infusion (2-5 mg) just prior to ITI. On day 4, the dogs received, if scheduled, an intrathymic injection of iduronidase at 1 mg/kg. Two weeks later, the dogs were begun on a weekly schedule of iduronidase enzyme infusions consisting of a weekly intravenous infusion of 14,000 U/kg (0.056 mg/kg/wk) of human recombinant iduronidase.
All canines received 0.056 mg/kg/week rh iduronidase intravenous challenges. Pre treatment ELISA values represent serum antibody levels prior to first antigen challenge with iduronidase.
Iduronidase was the same high uptake iduronidase as described above. The canines were challenged with 0.58 mg/kg of enzyme administered intravenously on a weekly basis for 3-6 doses.

[4] = dog, in vivo
Experimental: Canines were administered 14,000 U/kg/week α-L-iduronidase or higher dose as dose was ramped up, in a 50 mL infusion in saline containing 1 mg/mL canine albumin, 10 mM NaPO4, pH 5.8. Administered intravenously over 2 hours (1st hour 3,000 U/kg/hr; 2nd hour 11,000 U/kg/hr, or a higher rate in the 2nd hour depending on the dose). Animals were monitored for anaphylactic reaction.

[5] = test system: IgA and IgE antibodies to iduronidase; assay: ELISA for IgG, IgA and IgE antibodies to iduronidase in canine sera; assay type: in vivo; settings: before vs after 12 weekly infusions with iduronidase
Source text: The tolerance regimen in canine prevents the induction of IgG as manifested by a decrease in total IgG response against iduronidase as compared to the IgG response observed in non-tolerant canines. […] Analyses of the immune sera of canines that were either tolerant (dogs […] and SA) or canine controls (dogs RU and UM) that had not received the tolerizing regimen were studied for the presence of IgG, IgA and IgE antibodies to iduronidase.

B1: ovalbumin: non-phosphorylated protein antigen with mannose terminated N-linked oligosaccharides (protein, UniProt P01012 2-386, looked up)
Ovalbumin: GSIGAASMEFCFDVFKELKVHHANENIFYCPIAIMSALAMVYLGAKDSTRTQINKVVRFDKLPGFGDSIEAQCGTSVNVHSSLRDILNQITKPNDVYSFSLASRLYAEERYPILPEYLQCVKELYRGGLEPINFQTAADQARELINSWVESQTNGIIRNVLQPSSVDSQTAMVLVNAIVFKGLWEKAFKDEDTQAMPFRVTEQESKPVQMMYQIGLFRVASMASEKMKILELPFASGTMSMLVLLPDEVSGLEQLESIINFEKLTEWTSSNVMEERKIKVYLPRMKMEEKYNLTSVLMAMGITDVFSSSANLSGISSAESLKISQAVHAAHAEINEAGREVVGSAEAGVDAASVSEEFRADHPFLFCIKHIATNAVLFFGRCVSP
induction of tolerance to ovalbumin [1]: did not succeed; also recorded: could not

B2: iduronidase: recombinant human α-L-iduronidase, lysosomal hydrolase with mannose 6-phosphate marker (protein, UniProt P35475 28-653, looked up)
Alpha-L-iduronidase: APHLVHVDAARALWPLRRFWRSTGFCPPLPHSQADQYVLSWDQQLNLAYVGAVPHRGIKQVRTHWLLELVTTRGSTGRGLSYNFTHLDGYLDLLRENQLLPGFELMGSASGHFTDFEDKQQVFEWKDLVSSLARRYIGRYGLAHVSKWNFETWNEPDHHDFDNVSMTMQGFLNYYDACSEGLRAASPALRLGGPGDSFHTPPRSPLSWGLLRHCHDGTNFFTGEAGVRLDYISLHRKGARSSISILEQEKVVAQQIRQLFPKFADTPIYNDEADPLVGWSLPQPWRADVTYAAMVVKVIAQHQNLLLANTTSAFPYALLSNDNAFLSYHPHPFAQRTLTARFQVNNTRPPHVQLLRKPVLTAMGLLALLDEEQLWAEVSQAGTVLDSNHTVGVLASAHRPQGPADAWRAAVLIYASDDTRAHPNRSVAVTLRLRGVPPGPGLVYVTRYLDNGLCSPDGEWRRLGRPVFPTAEQFRRMRAAEDPVAAAPRPLPAGGRLTLRPALRLPSLLLVHVCARPEKPPGQVTRLRALPLTQGQLVLVWSDEHVGSKCLWTYEIQFSQDGKAYTPVSRKPSTFNLFVFSPDTGAVSGSYRVRALDYWARPGPFSDPVPYLEVPVPRGPPSPGNP
Kuptake (enzyme concentration at half maximal uptake) [2]: about 1 nanomolar
mean antibody titer after 12 weekly infusions of rhIDU ([3]; ELISA, eight normal and MPS I canines vs eight control canines): 149 OD units/μl serum
Antibody levels at week 15 ([3]; MPS I canines, iduronidase raised stepwise to 0.500 mg/kg/week at week 15): > 500 OD Units
titer on reexposure (anamnestic response) ([3]; canine Nitro, after nearly 6 months hiatus, 0.5 mg/kg/wk infusions): ≥ 400
further increase in antibody titer on higher therapeutic doses ([3]; immune responsive canines): 2-3 fold
induction in antibody titer on rechallenge ([3]; non-tolerant canine RU, after 2 doses of enzyme following 4.5 month hiatus): > 20 fold
titers by week 14 of enzyme therapy ([3]; two MPS I canines previously treated with 0.5 mg/kg/wk, no tolerance regimen, 0.5 mg/kg): 1800 and 2000
mean antibody titer on higher therapeutic doses of iduronidase ([3]; up to 6 months, n=6 tolerant, n=2 immune responsive): 369 OD/μl serum
anaphylactic / anaphylactoid reaction during the infusion [4]: serious clinical anaphylactic reaction
increase in IgA or IgE titer to iduronidase [5]: ~10 fold

B3: dephospho iduronidase: recombinant iduronidase dephosphorylated by incubation with acid phosphatase bound to beads (protein, UniProt P35475 28-653, looked up)
Alpha-L-iduronidase: B2 Alpha-L-iduronidase
modifications: dephosphorylated
Kuptake (enzyme concentration at half maximal uptake) [2]: too low to be calculated
tolerance induction with this form of the toleragen ([3]; canines, applied with the tolerance regimen (CsA+Aza), listed as dephosphorylated rhIDU): did not allow induction of the tolerant state
